Laboratory results from a protein production outcome set (Wang et al. 2014).

assay: label from the status in PepcDB records

Question: Which protein production does the source give for “MDYKSKTANDKEISIYYFSATGNSLKLSQDIAAAFGGAGLFRMTPSAGITASDSRIVGFIFPVYMGGLPGIVRRFLESYPFRKGVYYFSIGTYYTYKGCAVSVVDKIMSGKGVRLDYGYNLPTVGNCLKEYEVSSVRRTKILERAELYTSRIIDDLKKGKRKKPFPYCRLSDLLHKGLFNAFFSRSHLNFSLENGCMGCGVCERVCPVNNITLKNGVPRWGTGCEACHACVHWCPRNVIQIGKSKGRLQYHHPAVKRTMLYRVELEHHHHHH” here?
Answer: The protein production was “not failed”.

Question: With “MDYLSQEEDLQFFDANEEMMALNPSGFGFDVWNDSPGSVVERRRKFLEWMGVEEEGRVETKDSVSGSSVESCFDGGEENSVEAEERSGECSSSSSEVSLSGSSVEVSEELSLRVDRNVGGCDVTRRQSSSMASCSSSRYCQVKETEKQRNIAGLVTSFKKGWLSRLRSMGCTADTNIESGGRMRASSGYGDVISRVKVKHCKKQAKELSALYQSQDIKAHDGAILAMKFSNDGKFLASSGEDGIVRVWKVVEDKKSRLRRDCLNEIDPSCMYFEVNDLSQLKPVLVNEEKPKKTTESFRKTSDSACVVFPPKVFRIMEKPLYEFRGHTGEVLDISWSKDNYLLSASMDKTVRLWKVGSNDCLGVFAHNSYVTSVQFNPVNENYFMSGSIDGKVRIWNISGCSVVDWADLKDIISAVCYRPDGQGGIIGSLNGSCRFFNMSGEFLELDSQIHLHNKKKSSNKRITGFQFLPQEPTKVLVVSADSKVRILQGNNVVRKYKGVCKTRSLTSASLTSDGKHIVSACEDSNVYIWSNDEESETKKIRSFERFSANASVAATWCGFSDHNTTLPFSSPSCLSHNEGFVPGSISKGSATWPEENLPANPLSTSAMNASHYKFLKSSYQRASSSLSWGMVIVTGGWDGQIRTFQNYGLPVTT” as the sequence, how does the protein production read?
Answer: Its protein production is “failed”.

Question: Which protein production does the source give for “MDYTYTVMTQEEAEEIAYNWHYEGEYSFYDIEADEEDLAEFLHDESRGDHIFSVKEHGTLIGYFTVCKINDGTVDIGLGMKPNITGNGFGLQFINAILAFSKEKYGCKYITLSVATFNKRAIKVYKRAGFEAVGTFIQKTNGSCFEFLKMNYICKND” here?
Answer: The protein production was “failed”.

Question: With “MEAEKKKLSIPPKGIRAIIEAIRLGEIIKPSQYAKREAFKKHDVEEAWLNRVLTMIFYDIMKKQGLIDKVIKEIVGVTPLILDPWLRAALRVAVDIALFHDPSSQTIKNLRWKASDFISSRTHPYVGMYFWDLLDKIFEYKPNPKNELEELEWKYLAPSWLIERVKGILGDETEDFFRSVNKRHEWISIRVNTLKANVEEVIGELEEDGVEVVRSERVPTILKIKGPYNFDTSSAFNEGKIIVQEEASAVASIVLDPKPGETVVDLAAAPGGKTTHLAELMKNKGKIYAFDVDKMRMKRLKDFVKRMGIKIVKPLVKDARKAPEIIGEEVADKVLLDAPCTSSGTIGKNPELRWRLREDKINEMSQLQRELLESAARLVKPGGRLLYTTCSIFKEENEKNIRWFLNVHPEFKLVPLKSPYDPGFLEGTMRAWPHRHSTIGFFYALLEKSK” as the sequence, how does the protein production read?
Answer: Its protein production is “not failed”.

Question: Which protein production does the source give for “MEAGFVSVGDVTFRDLEDEAIVELVRKGNTDALEYLIHKYKNFVRAKSRSYFLVGADREDIVQEGMIGLFKAIRDYKEDKLSSFKAFAELCITRQIITAIKTATRQKHIPLNSYVSLDKPIYDEESDRTLLDVISEAKVTDPEEMIISQEEYTDIESKISELLSDLERKVLSLYLDGRSYQEISEQLNRHVKSIDNALQRVKRKLERYMEMRESTTLNS” here?
Answer: The protein production was “failed”.

Question: Which protein production does the source give for “MEAKKSNKIREIVKLQQLLKKWRKQAIASKAANNNNEDNNSSGGGSKSIKFLKRTLSFTDVTAVPKGYLAVSVGLEKKRYTIPTEYLSHQAFYVLLREAEEEFGFQQAGVLRIPCEVSVFESILKIMEEKNEGYLVTPITAKQECKFNAAADDKTSYQHPSDCPKTPSHQPHNSPMCR” here?
Answer: The protein production was “not failed”.

Question: Which protein production does the source give for “MEAMTLPPQDLPPGQALLATPLGTANAPQAARVHTYPLRFTGQASEYFRVWIVNLALTVITLGLYTPWARIRTRQYLYGHTWLDDQNFEYTASPFALLRGYLIVVAFFGLYTAAQQLQFTGWEWVTGALGLLFAVAYPWLVRQSMRFQARSTVHRGLRFRFTGSLGDAYVSYGVANIAAVFSGSLALPWAWFMQRRYQADGLAYGTARGHFRGSLGPFYLIGLAGAGLTVLGIGLLAGLAIGAATIAGVLGDLNLEQLDTDLLTSAVVVAFVLGYLALAVLYGIAWQYVRAATMHYVLNNFELGGVVRTQATFSPWRLVWINLANTLARIFSLGLLTPWTVIRTNRYLLGHVQVRAIVSLDDFSAAQTEDESAVGEAATELLDINIGF” here?
Answer: The protein production was “failed”.

Question: Which protein production does the source give for “MEAPTVLDVGCGDGARTLANLPPRSVGLDFSRAGLDLAAETVPDSRLVQGDMGSLPVTTDSVDAITAYHAVFHVQRDQHPEVYREFARVLRPGGTVLMTLPSGQFETVRRGWMGGSMFFSAPGRRATLDQLADAGFTETETVTATDPLGSDSEFVFATLADALEHHHHHH” here?
Answer: The protein production was “failed”.

Question: For “MEDEHSRQAYVDQLGLLEEGADEVFEEILAAATSYFQTPIALISILDHQRQWFRASIGLDIRQTPRRDSFCAYAILGKGVFEVADATLDPRFRDNPYVQGEPRIRFYAGAPLATAEGLNLGSLCVIDREPRGPLAERDVAMLEHFARLVMARIHTLRSTNYIDEPTGLYNRLRLQEDVSLRLQRDGALTVIAADLLPLALLNTIIRTLGYPFSNDLMLEARDRIRAELPDFTLYKISPTRFGLLLPRQQQEETESVCLRLLRAFESPVVCRGIPIKANVGLGVLPLADDTLDGDQDWLRLVVSAADDARDRGVGWARYNPPLDQAQQRAFTLLTSLSQAIGTEEGFHLVYQPKIDLPTGRCTGVEALLRWRHPQLGFVSPAEFVPLAEKTALMRPLSDWVLRHAMAQLAQWNARNIPLRLAINVSASDMEDSSFLEEAVRLAKTYDIDLSALELEFTESVLIRDASAVGSVLLRARELGMGIAVDDFGTGYSNWTYLRDLPITAIKLDQSFTRDLAGSPKAQSVTQAVIGLASQLGYRVVAEGIETHDTFHLLQAWGCHEGQGYLIAQPMLPEQLEDWLRRLEHHHHHH”, which protein production is on record?
Answer: The protein production was “failed”.

Question: With “MEDIFSKRKTLRTIKADTSDYFIPLFHTLAVFLSTKETIITKRFLEHIMKNLIALTLLLGGSTLLCAQKPAKTPATYKPVKSEMYRKGWIDFNKNGVKDVYEDPSAPLEARIENLLQQMTLDEKTCQMVTLYGYKRVLKDDLPTPEWKELLWKDGIGAIDEHLNGFQQWGLPPSDNAYVWPASRHAWALNEVQRFFVEDTRLGIPVDFTNEGIRGVESYRATNFPTQLGLGHTWNRELIRQVGLITGREARMLGYTNVYAPILDVGRDQRWGRYEEVYGESPYLVAELGIEMVRGLQHNHQVAATGKHFAAYSNNKGAREGMARVDPQMSPREVENIHIYPFKRVIREAGMLGVMSSYNDYDGIPVQGSYYWLTTRLRGEMGFRGYVVSDSDAVEYLYTKHGTAKDMKEAVRQSVEAGLNVRCTFRSPDSFVLPLRELVKEGGLSEEVINDRVRDILRVKFLIGLFDAPYQTDLADADREVEKEENEAIALQASRESIVLLKNAGELLPLDINSTKKIAVCGPNANEEGYALTHYGPLAVEVTTVLEGIQEKTKGKAEVLYTKGCDLVDAHWPESEIIDYPLTDDEQAEIDKAVENARQADVAIVVLGGGQRTCGENKSRTSLDLPGRQLQLLQAIQATGKPVVLILINGRPLSINWADKFVPAILEAWYPGSKGGTALADILFGDYNPGGKLTVTFPKTVGQIPFNFPCKPSSQIDGGKNPGPTGNMSRINGALYPFGYGLSYTTFEYSDLDITPRVITPNESATVRLKVTNTGKRAGDEVVQLYIRDVLSSITTYEKNLAGFQRIHLEPGEAQELSFTIDRKHLELLDADMKWVVEPGDFVLMAGASSEDIRLNGTLTVEDYQTRAKAIEAQKPAKRVSASTNPEDAENVLDEKINTAWQGNKGDYITFALKNGAKVDKVAIAFTRDNNLPATFEIQLSGGGGQFLTVYSGTVSEYGKLISYPFKGTTASDLRIVLNDDRVSIAEVKF” as the sequence, how does the protein production read?
Answer: The protein production was “failed”.

Question: For “MEDKAVSPIIATILLIAITVALAATFYTEVTPYFTEAQYYTPQAVTDVMNVSNGSSFSYDIYIQFFPANLTASQVEISLHVGSSYEYINLKMLSPFGKTTLNNGSITISQYPSAGYFTQGLIFVINSTLPLHSIIFVDLKTSSSINTVSI”, which protein production is on record?
Answer: The protein production was “failed”.

Question: Which protein production does the source give for “MEDKKEYAKYAGFRIRFAAMLIDVVILVILFSIPVGFIYGQEYWQGEKLIYGFWDVLINYVIPAILTIFFWIKFLGTPGKMILKLRVVDEHTGGTLSIGKAIGRYFAYILSILPVFLGFFWIGFSDKKQGWHDILAGTVVIRSESKGPFEFRS” here?
Answer: Its protein production is “failed”.

Question: With “MEDKRISEKESLELIACMIRETQDNTARYAAYPLLIWGYTTVAISLVVWYFYLQTGVWQINFLWFALPVIAGPLTIFFNRKDKNKGAKNYIDRVTGQIWAVFGVVGFCLSCMAFVVRIDILFVISLLMGMGATLTGLVCKYKPLSIAGMTGIALSFSMLFIHGSGVYLVFAAIFIVMMIVPGHIMNKQMKKQCLKN” as the sequence, how does the protein production read?
Answer: Its protein production is “failed”.

Question: With “MEDLLVVGQIINTHGLRGEMKVMPLTEDMRRFDYLEYVILKGKKVKVEGVKYFKDKVILKLEGINSIEEAEKLKRTYLEIEREDAIELEEDEYFIVDLVGCTVVDTEGFEYGKIKDVIQTPSNDVYWVQGKKEVLVPVLKDIVLDINMDEKLITIRPSGEWQYEDLEHHHHHH” as the sequence, how does the protein production read?
Answer: The protein production was “failed”.

Question: With “MEDSSGQSLLFQFILLLILTLLSAFFSASEMALVSLNRSRVEQKAEEGDKKFIRLLKVLENPNNFLSTIQVGITFIGLLQGASLSASLGAVIATWFGNVAWAKTAGSVVSLVVLTYISIVFGELYPKRIAMNLKENLAIYSAPVIIVTGKIVSPFVWILSASTNLLSRLTPMTFDDADEPMTRDEIEYMLTKSEDTLEAEEIEMLQGIFSLDELMAREVMVPRTDAFMIDIEDDTQENIQAILKQSFSRIPVYEDNKDKIIGVIHTKKLLKAAYELGFENVNLRRIMNEPLFVPETIFVDDLLAAFRNTNNQMAILLDEYGGVAGLVTFEDLLEEIVGEIDDETDKASVEVREIGENTYIVEGSMTLNDFNEHFDTELESDDVDTIAGYYLTGVGAIPTQEVKEHYEVINKDKRLEFINDKVKDGRVTKLKVIITAAPEEAGE” as the sequence, how does the protein production read?
Answer: Its protein production is “failed”.

Question: For “MEDTTFTKVFVGGLAWETHKVSLRNYFEQFGDIVEAVVITDKSSGRSKGYGFVTFCDPEAAQKACVDPAPVIDGRRANCNLAAFGVQRSKPSSPIHGTFRFLSFDTLLLKTLHQEYM”, which protein production is on record?
Answer: The protein production was “failed”.

Question: For “MEDYGFEYSDEEQEEQDVDIENQYYNSKGMVETEPEEALSGFAEVVQMEPEKADWGFKALKQTVKIYYRLGKYKEMMEAYTEMLTYIKSAVTRNYSEKCINNIMDFVSGSASQNTGLLQEFYQTTLKALEEAKNERLWFKTNLKLCNIWFDIGEYRRMTKILKELHKSCQKEDGTDDQKKGSQLLEVYAIEIQIYTETKDNKKLKQLYHKALAIKSAIPHPRIMGIIRECGGKMHMAERQWEEAATDFFEAFKNYDEAGNQRRIQCLKYLVLANMLMESEVNPFDGQEAKPYKNDPEILAMTNLIAAYQRNEIIEFERILKSNRRTIMDDPFIRNYMEDLLKKVRTQVLLKLIKPYTKIGIPFISKELNVPETDVTELLVSLILDSRIDGHIDEMNRYLLRGDSGNGRKLHKAVDKWNSQLKSLSSNITSRVC”, which protein production is on record?
Answer: Its protein production is “failed”.

Question: For “MEEFQFTKRVHNILKIAAEEGESNIIQPVHLFIGMCKEGTGVCSELYMYLFRNVGTDFLEKLSLRKQDDLTDQEYEKIGQYKVSYKVLEILQIAKKRMERFQQVLMNEGHVIYALFRADTFIENPQIQKEILRIVEEPRDLAVDLKCFVPAYTHLTCHVRKANSSDFGKLVSFVSEEFGERWLHSIEYGFRTYKENVPIYIAEQKEVIVGFACYDVVRGKKGLFGPMGTAKQNRVKSVGKQLLHCSLHSMKQDGYEYAIIGQAGPVEFYERCCNARLIPIMDY”, which protein production is on record?
Answer: The protein production was “failed”.

Question: With “MEEKRRRARVQGAWAAPVKSQAIAQPATTAKSHLHQKPGQTWKNKEHHLSDREFVFKEPQQVVRRAPEPRVIDREGVYEISLSPTGVSRVCLYPGFVDVKEADWILEQLCQDVPWKQRTGIREDITYQQPRLTAWYGELPYTYSRITMEPNPHWHPVLRTLKNRIEENTGHTFNSLLCNLYRNEKDSVDWHSDDEPSLGRCPIIASLSFGATRTFEMRKKPPPEENGEYTYVERVKIPLDHGTLLIMEGATQADWQHRVPKEYHSREPRVNLTFRTVYPDPRGAPW” as the sequence, how does the protein production read?
Answer: The protein production was “failed”.
